doi:10.1101/2023.02.16.528878 (bioRxiv, 2023)

T1: GST-CDK5RAP3 (human, UniProt Q96JB5 1-506)
T1 sequence: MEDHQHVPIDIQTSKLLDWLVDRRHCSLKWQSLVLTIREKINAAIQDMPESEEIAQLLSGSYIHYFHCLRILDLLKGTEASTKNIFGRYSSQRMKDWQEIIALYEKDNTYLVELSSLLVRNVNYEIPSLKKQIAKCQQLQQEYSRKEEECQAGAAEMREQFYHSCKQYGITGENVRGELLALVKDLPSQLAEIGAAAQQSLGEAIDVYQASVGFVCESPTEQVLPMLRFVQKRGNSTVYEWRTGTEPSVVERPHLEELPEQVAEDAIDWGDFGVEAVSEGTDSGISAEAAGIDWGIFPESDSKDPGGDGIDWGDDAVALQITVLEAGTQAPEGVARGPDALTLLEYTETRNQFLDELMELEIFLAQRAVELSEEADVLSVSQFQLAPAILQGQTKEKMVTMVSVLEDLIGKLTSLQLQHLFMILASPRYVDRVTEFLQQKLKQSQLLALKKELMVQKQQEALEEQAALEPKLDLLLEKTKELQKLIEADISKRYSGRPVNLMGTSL

B1: recombinant UFC1 (enzyme)
chain: MADEATRRVVSEIPVLKTNAGPRDRELWVQRLKEEYQSLIRYVENNKNADNDWFRLESNKEGTRWFGKCWYIHDLLKYEFDIEFDIPITYPTTAPEIAVPELDGKTAKMYRGGKICLTDHFKPLWARNVPKFGLAHLMALGLGPWLAVEIPDLIQKGVIQHKEKCNQ

Experiments:
recombinant UFC1 = target: B1; experiment: ITC
GST-CDK5RAP3 = target: T1, GST-CDK5RAP3; experiment: pull-down

| Kd (recombinant UFC1) [nM] | binding result (GST-CDK5RAP3) | Binder |
| --- | --- | --- |
| 410 | – | MADAWEEIRRLAADFQRAQFA [UFL1^UBS peptide, UFL1(1-21)] |
| – | binds | B1 |
